The test system of this test is Jurkat T cells. Format: cell-based, human. The conditions noted are these: IL-2 production level in treated group compared to control group; 48 hours treatment, then anti-CD3/anti-CD28 12 hours. The source says: Two preliminary screens were designed and performed.
To construct “blood chemical compound library for cell-based screening purposes, components such as antibodies that are difficult to distinguish due to a wide variety, and some supplements that only function at a whole organism level including fish oils and herbs were excluded. Physiological ranges of serum levels of individual blood chemicals are available in the human metabolome database (https://hmdb.ca/) and applied in the experimental design. For first screen 1a, Jurkat T cells were treated with blood chemical library for 48 hours and then activated with 2.5 μg/mL anti-CD3 and 0.5 μg/mL anti-CD28 antibodies for another 12 hours, followed by measurement of IL-2 level in medium supernatant using ELISA kit (Biolegend). For first screen 1b, 1×10^5 PD-1^+ Jurkat T cells were co-cultured with 2×10^4 H596 (PD-L1^+) cells in a well of 96-well plate for 60 hours, and then activated with 2.5 μg/mL anti-CD3 and 0.5 μg/mL anti-CD28 antibodies for another 12 hours, followed by measurement of IL-2 level in medium supernatant using ELISA kit. Please also refer to Resources Table and Table 1-2 for more details.

The record followed here is US20250221953A1 (The University of Chicago, priority 2022, published 2025).

B1: LIPASE FROM PORCINE PANCREAS (protein, UniProt P00591 1-450, looked up)
Pancreatic triacylglycerol …: SEVCFPRLGCFSDDAPWAGIVQRPLKILPWSPKDVDTRFLLYTNQNQNNYQELVADPSTITNSNFRMDRKTRFIIHGFIDKGEEDWLSNICKNLFKVESVNCICVDWKGGSRTGYTQASQNIRIVGAEVAYFVEVLKSSLGYSPSNVHVIGHSLGSHAAGEAGRRTNGTIERITGLDPAEPCFQGTPELVRLDPSDAKFVDVIHTDAAPIIPNLGFGMSQTVGHLDFFPNGGKQMPGCQKNILSQIVDIDGIWEGTRDFVACNHLRSYKYYADSILNPDGFAGFPCDSYNVFTANKCFPCPSEGCPQMGHYADRFPGKTNGVSQVFYLNTGDASNFARWRYKVSVTLSGKKVTGHILVSLFGNEGNSRQYEIYKGTLQPDNTHSDEFDSDVEVGDLQKVKFIWYNNNVINPTLPRVGASKITVERNDGKVYDFCSQETVREEVLLTLNPC
In the case of B1, the “Relative changed percentage (%)” value was −9.403%.
